The source of these data is patent publication US20200123233A1 (published 2020).

The target of test [1] is T1, hRSV FTM- protein (membrane anchorless form of the fusion protein, 70 kDa) (human respiratory syncytial virus, UniProt P12568 26-524).
T1 construct: extracellular domain
As to the kind of experiment: SPR (Biacore T100), FTM- amine-coupled on CM5 chip, 1:1 Langmuir fit.

For test [2], the target named is T2, FTM-NN protein (membrane anchorless form of the Long fusion protein of hRSV, 70 kDa) (human respiratory syncytial virus, …, UniProt P12568 26-524). The experiment in a line: ELISA, periplasmic extract on immobilised F protein; signal as fold over blank. In general terms: ELISA stands for enzyme-linked immunosorbent assay.
The target in test [3] is T2, FTM-NN protein (membrane anchorless …). As to the kind of experiment: competition ELISA, periplasmic extract diluted 1:100, competitor 101F Fab.
The target is the same in test [4]. As to the kind of experiment: competition ELISA, periplasmic extract diluted 1:300, competitor 101F Fab.
Test [5] shares this target. As to the kind of experiment: competition ELISA, periplasmic extract diluted 1:1000, competitor 101F Fab.

B1: LG192C10 (VHH)
VHH: EVQLVESGGGLVQAGGSLRLSCAASEGYFRNYMVGWFRQAPGGERMFVAAISDTAYYADSVKGRFTISRDNAKNTVYLPMNSLKPEDTAVYYCAAAPKSWGTWPLVADTRSYHFWGQGTQVTVSS
The Kd is the concentration at which binding is half-saturated. Low readings indicate tighter binding, high ones weaker binding. What is called koff is a measure of how fast the partners let go of each other. A lower koff goes with a long-lived complex. Broadly, the kon is the second-order rate constant of association. Higher therefore signals faster complex formation. In test [1], B1 came in with a Kd of 3.49 nM, a koff of 0.000613 s⁻¹ and a kon of 175000 M⁻¹ s⁻¹.

B2: PMP23E5 (VHH)
VHH: EVQLMESGGGLVQAGGSLRLSCAASGGTFSSYAMGWFRQAPGEERDFVAAIGWSGNSPYYAQFVKGRFTISRDNAKNTVHLQMNSLKPEDTAVYYCAAAHNTMGSDYEGYDYWGQGTQVTVSS
Turning to B2, the “Binding RSV-A, Fold blanc” value in test [2] stood at 3.4 fold over blank. Besides, the “% Inhibition 101F Fab (1:100 PE)” value in test [3] came to 37%. Also, the “% Inhibition 101F Fab (1:300 PE)” value in test [4] turned out to be 16%.

B3: PMP13A1 (VHH)
VHH: EVQLVESGGGLVQPGGSLRLSCAASGLTLDYYALGWFRQAPGKEREGVSCISSADHSTTYADSVKGRFTISWDNAKNTVYLQMNSLKPEDTAVYYCAADPALGCYSGNYYPRYDYWGQGTQVTVSS
Consider B3, for which, in test [2], the “Binding RSV-A, Fold blanc” value turned out to be 2.9 fold over blank. Also, the “% Inhibition 101F Fab (1:100 PE)” value in test [3] was determined as 74%. Also, the “% Inhibition 101F Fab (1:1000 PE)” value in test [5] was 13%. The “% Inhibition 101F Fab (1:300 PE)” value in test [4] was 46%.

B4: PMP19E2 (VHH)
VHH: EVQLVESGGGLVQPGGSLRLSCAASGLTLDYYALGWFRQAPGKEREGVSCISSSDHTTTYTDSVKGRFTISWDNAKNTLYLQMNSLKPEDTAVYYCAADPALGCYSGSYYPRYDFWGQGTQVTVSS
Regarding B4, the “Binding RSV-A, Fold blanc” value in test [2] turned out to be 3.5 fold over blank. In addition, the “% Inhibition 101F Fab (1:100 PE)” value in test [3] amounted to 74%. In addition, the “% Inhibition 101F Fab (1:1000 PE)” value in test [5] worked out at 5%. In addition, the “% Inhibition 101F Fab (1:300 PE)” value in test [4] stood at 27%.

B5: LG191E4 (VHH)
VHH: EVQLVESGGGLVQAGGSLRLSCAASGPTFSADTMGWFRQAPGKEREFVATIPWSGGIAYYSDSVKGRFTMSRDNAKNTVDLQMNSLKPEDTALYYCAGSSRIYIYSDSLSERSYDYWGQGTQVTVSS
As for B5, in test [1], binding was characterised by a dissociation constant (Kd) of 0.7 nM, the koff worked out at 0.000208 s⁻¹ and the kon came out at 298000 M⁻¹ s⁻¹.

B6: PMP1B2 (VHH)
VHH: EVQLVESGGGLVQAGGSLRLSCAASGPTFSADTMGWFRQAPGKEREFVATIPWSGGIAYYSDSVKGRFTMSRDNAKNTVDLQMNSLKPEDTALYYCAGSSRIYIYSDSLSERSYDYWGQGTQVTVSS
As for B6, the “Binding RSV-A, Fold blanc” value in test [2] was 3.8 fold over blank. Moreover, the “% Inhibition 101F Fab (1:100 PE)” value in test [3] was 82%. Also, the “% Inhibition 101F Fab (1:1000 PE)” value in test [5] is 25%. For the same molecule, the “% Inhibition 101F Fab (1:300 PE)” value in test [4] was found to be 58%.

B7: LG192C4 (VHH)
VHH: EVQLVESGGGLVQAGGSLRLSCEASGRTFSSYAMVGWFRQAPGKEREFVAAVTRWSGARTVYADSVKGRFTISRDNAENTVYLQMNSLKPEDTAVYTCAADSTNRNSGAVYYSWAYDYWGQGTQVTVSS
In test [1], B7 yielded a Kd of 7.47 nM, a koff of 0.00846 s⁻¹ and a kon of 1.13e+06 M⁻¹ s⁻¹.

B8: PMP13E12 (VHH)
VHH: EVQLVESGGGLVQAGGSLRLSCAASGRTFSRYIMGWFRQAPGKEREFVGAISRSGDITSFADFVKGRFTMSRDNAKNTLYLQMNSLEPEDTAVYSCAANSDTYYIYSDIVVPERYDYWGQGTQVTVSS
Regarding B8, the “Binding RSV-A, Fold blanc” value in test [2] came to 3.7 fold over blank. In test [3], the “% Inhibition 101F Fab (1:100 PE)” value is 74%. In addition, the “% Inhibition 101F Fab (1:1000 PE)” value in test [5] is 8%. The “% Inhibition 101F Fab (1:300 PE)” value in test [4] is 28%.

B9: LG192B1 (VHH)
VHH: EVQLVESGGGLVQPGGSLRLSCAASGLTFRNYAIGWFRQAPGKEREGVSCINSGGSITDYLDSVKGRFAISRDNAKSTVYLQMNSLKPEDTAVYYCATDLTSSCPIYSGTDYWGKGTLVTVSS
For B9, in test [1], the Kd came to 55.5 nM, the koff is 0.0127 s⁻¹ and the kon was determined as 229000 M⁻¹ s⁻¹.

B10: PMP13D1 (VHH)
VHH: EVQLVESGGGLVQPGGSLRLSCATSGFTEDYYVIGWFRQAPGKEREGVSCMSSSGDSTTYADSVKGRFTISRDNAKNMVYLQMTSLKPEDTAVYYCAADFALGCYSGSYYPRYDYWGQGTQVTVSS
Consider B10, for which the “Binding RSV-A, Fold blanc” value in test [2] came to 3.1 fold over blank. In addition, the “% Inhibition 101F Fab (1:100 PE)” value in test [3] is 78%. The “% Inhibition 101F Fab (1:1000 PE)” value in test [5] was found to be 16%. Besides, the “% Inhibition 101F Fab (1:300 PE)” value in test [4] was 52%.

B11: LG192H1 (VHH)
VHH: EVQLVESGGGLVQAGGSLRLSCAASGIIFSTNHMGWYRRAPGKQRELVGTINRGDSPYYADSVKGRFTISRDNAKNMVYLQMNSLKPEDTAVYYCNAGYIYWGQGTQVTVSS
On to B11, for which, in test [1], binding was characterised by a dissociation constant (Kd) of 3.72 nM, the koff was 0.00611 s⁻¹ and the kon came out at 1.65e+06 M⁻¹ s⁻¹.

B12: LG192F2 (VHH)
VHH: EVQLVESGGGLVQAGGSLRLSCEASGRTFSPIAMGWFRQAPGKEREFVAVVTRWSGARTVYADSVKGRFTISRDNAENTVYLQMNSLKPEDTAVYTCAADSTNRNSGAIYYTWAYDYWGQGTQVTVSS
In test [1], B12 displayed a Kd of 7.14 nM, a koff of 0.00577 s⁻¹ and a kon of 807000 M⁻¹ s⁻¹.

B13: LG192H2 (VHH)
VHH: EVQLVESGGGLVQAGGSLRLSCEASGRTFSNYAMGWFRQAPGKEREFVAVVTRWSGGRTVYADSVKGRFTISRDNAENTVYLQMNSLKPEDTAVYTCAADSTNRNSGAWYYTWAYDHWGQGTQVTVSS
In test [1], B13 had a Kd of 15.4 nM, a koff of 0.0128 s⁻¹ and a kon of 829000 M⁻¹ s⁻¹.

B14: LG191D3 (VHH)
VHH: EVQLVESGGGLVQAGGSLRLSCEASGRTYSRYGMGWFRQAPGKEREFVAAVSRLSGPRTVYADSVKGRFTISRDNAENTVYLQMNSLKPEDTAVYTCAAELTNRNSGAYYYAWAYDYWGQGTQVTVSS
For B14, in test [1], the Kd stood at 2.05 nM, the koff stood at 0.00324 s⁻¹ and the kon was determined as 1.59e+06 M⁻¹ s⁻¹.

B15: LG192C6 (VHH)
VHH: EVQLVESGGGLVQAGGSLRLSCEASGRTERYQAMGWFRQAPGKEREFVAVVTRWSGARTVYADSVKGRFTISRDNAENTVYLQMNSLKPEDTAVYTCAADSTNRNRGAIYYTWAYDYWGQGTQVTVSS
In test [1], B15 showed a Kd of 7 nM, a koff of 0.00808 s⁻¹ and a kon of 1.15e+06 M⁻¹ s⁻¹.

B16: PMP13B4 (VHH)
VHH: EVQLVESGGGLVQAGGSLRLSCAASGFTFDDYAIGWFRQAPGKEREAVSCISSSDGSTYYADSVKGRFTISSDNAKNMVYLQMNSLKPEDTAVYYCAADLLRTAVGCLDYRGTYYPRTTMDYRGKGTLVTVSS
On to B16, for which, in test [2], the “Binding RSV-A, Fold blanc” value came to 2.7 fold over blank. Further, in test [3], the “% Inhibition 101F Fab (1:100 PE)” value was 82%. In addition, the “% Inhibition 101F Fab (1:1000 PE)” value in test [5] came to 20%. The “% Inhibition 101F Fab (1:300 PE)” value in test [4] amounted to 47%.

B17: PMP8A1 (VHH)
VHH: EVQLVESGGGLVQPGGSLRVSCAASGFTFNDYIMGWFRQAPGKERMFIAAISGTGTIKYYGDLVRGRFTISRDNAKNTVYLRIDSLNPEDTAVYYCAARQDYGLGYRESHEYDYWGQGTQVTVSS
B17: in test [2], the “Binding RSV-A, Fold blanc” value is 3.7 fold over blank. For the same molecule, in test [5], the “% Inhibition 101F Fab (1:1000 PE)” value came to 20%. Moreover, the “% Inhibition 101F Fab (1:300 PE)” value in test [4] is 55%.

B18: PMP8B10 (VHH)
VHH: EVQLVESGGGLVQAGASLRLSCAASGLAFSRYAMGWFRQAPGKERESVAAISSSGDNIYYADSVKGQFTMSRDNAKSSVYLQMINLKPEDTAVYYCAATSPLFVASDYFEASRYGYWGQGTQVTVSS
Take B18: the “Binding RSV-A, Fold blanc” value in test [2] was determined as 3.5 fold over blank. Moreover, in test [3], the “% Inhibition 101F Fab (1:100 PE)” value was 56%. The “% Inhibition 101F Fab (1:1000 PE)” value in test [5] is 6%. Further, in test [4], the “% Inhibition 101F Fab (1:300 PE)” value came to 31%.

B19: PMP13C1 (VHH)
VHH: EVQLVESGGGLVQPGGSLRLSCEASGFTWDYYVIGWFRQAPGKEREGLSCISSDGSTTYADSVKGRFTISRDNAKNTVYLQMNSLEPEDTAVYYCATDPALGCYSGSYYPRYDYWGQGTQVTVSS
For B19, the “Binding RSV-A, Fold blanc” value in test [2] stood at 3 fold over blank. For the same molecule, in test [3], the “% Inhibition 101F Fab (1:100 PE)” value stood at 57%. Besides, the “% Inhibition 101F Fab (1:1000 PE)” value in test [5] was 9%. Besides, the “% Inhibition 101F Fab (1:300 PE)” value in test [4] came out at 37%.

B20: LG192A8 (VHH)
VHH: EVQLVESGGGLVQAGGSLRLSCAASERTVIAYTMGWFRRAPGKERDFVAAMNWNGGNTIYADSAKGRFTISRDNAKNTVYLQMNSLKAEDTAVYYCAARPRFWGSYEYDYWGQGTQVTVSS
B20: in test [1], the affinity, expressed as Kd, was 2.91 nM; the koff came to 0.000937 s⁻¹; the kon turned out to be 322000 M⁻¹ s⁻¹.

B21: LG191B9 (VHH)
VHH: EVQLVESGGGLVQAGGSLRLSCAASGRTFSSSFMAWFRQVLGSDREFVGGISPGGRFTYYADSRKGRFTISGDNANNTVYLQMHSVKPEDTATYYCAADTQFSGYVPKETNEYDYWGQGTQVTVSS
With B21, in test [1], the affinity, expressed as Kd, was 25.4 nM; the koff was found to be 0.00492 s⁻¹; the kon was 194000 M⁻¹ s⁻¹.
